Measured values: the supplement of paper PMC10567573

B1: INTS4 (parent)
chain: YSSGEFSSGRKWGDDAPKEEVDTG

Variants of: B1
Experiment: protein stability index of a GFP-peptide fusion (GPS, HEK-293T) (PSI 1-6); higher = more stable
Details: c terminus: a fixed tail appended
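Further: lentivirally expressed fusions sorted by FACS into six bins by GFP to DsRed ratio, PSI derived from sequencing read proportions per bin multiplied by bin number.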

Protein stability index of substitutions, site by site:
S3: W 2.89, K 4.51, N 4.08, R 4.47, Y 4.13, G 3.5, C 4.1, Q 3.86, D 5.15, P 4.1, A 4.89, E 5.22, I 4.01, T 3.83, M 3.91, V 4.77, F 3.93, H 4.43, L 4.59
G4: M 3.75, Q 3.92, Y 3.91, I 4.11, S 4.02, R 2.22, H 4.42, V 3.87, N 4.01, A 3.56, F 3.6, E 4.08, K 3.31, W 2.43, L 3.33, C 3.61, P 3.11, T 3.61, D 4.57
E19: I 2.32, M 2.93, R 1.75, S 2.26, C 2.37, A 2.67, K 2, Q 2.95, V 1.84, P 2.3, H 2.09, Y 1.74, N 2.52, T 2.72, L 1.94, F 2.97, G 2.48, D 2.74
W12: K 2.94, Q 3.17, G 3.11, F 2.96, M 2.85, R 2.86, C 2.7, N 3.3, D 3.21, I 3.2, E 3.84, A 3.22, P 2.92, V 3.08, S 4.44, L 3.24, T 3.08, Y 2.57, H 3.29
K11: L 1.91, G 2.98, V 2.39, Y 3.31, A 2.7, I 1.78, H 2.45, R 1.97, S 3.02, C 1.93, D 2.73, T 2.31, F 1.9, W 1.94, N 3.21, M 2.62, Q 2.83, P 2.08, E 3.25
G9: M 1.83, W 1.43, V 3.12, L 2.49, C 1.75, N 2.59, R 2.32, E 2.76, T 2.3, D 3.6, F 2.48, A 1.91, K 1.28, P 2.27, S 2.63, Q 2.35, H 2.43, Y 2.44, I 1.84
A16: H 1.92, T 2.28, P 2.32, V 2.42, I 2.28, Y 2.56, W 2.01, D 2.95, N 2.09, C 2.71, R 2.71, Q 2.71, F 2.3, K 2.19, E 2.99, G 2.16, L 2.48, S 2.63, M 2.52
K18: Q 2.92, G 3.44, C 2.62, V 2.81, Y 2.62, L 2.49, H 2.83, S 3.16, N 2.96, T 2.56, I 2.73, R 3.13, W 2.88, D 3.16, E 3.84, F 4.04, A 3.05, M 2.82, P 3.08
S8: A 2.75, F 2.48, D 3.79, I 1.94, N 2.68, C 1.97, L 3.21, H 2.25, K 2.19, R 2.24, M 1.6, Q 1.89, Y 2.59, E 3.56, V 1.57, G 3.83, T 2.48, P 3.25
E20: R 2.28, P 2.42, N 2.35, Q 2.6, G 2.17, I 2.43, H 2.63, C 2.5, L 1.89, K 1.91, T 2.38, D 2.49, A 2.3, S 1.91, M 2.31, V 2.37, F 2.42
S7: P 1.67, E 4.21, R 1.8, I 1.96, H 1.92, F 2.98, C 2.32, T 3.02, A 1.91, N 3.3, Q 2.69, V 2.27, Y 2.52, G 2.75, L 2.43, K 3.45, D 3.83, M 2.17
G13: R 2.15, V 2.47, I 2.48, W 2.44, K 2.5, Q 3.38, T 2.5, P 2.6, A 2.65, N 3.13, H 3.66, L 2.35, D 2.5, M 2.45, F 2.65, Y 2.81, E 3.02, C 2.65, S 2.94
D15: F 3.02, W 1.69, Q 2.12, H 1.81, I 1.11, Y 2.01, A 1.78, G 2.07, V 1.78, S 2.54, K 2.18, L 2.04, N 2.34, P 1.96, E 3.12, T 2.28, R 1.92, M 1.78, C 2.5
P17: W 2.9, C 2.64, H 1.47, G 2.09, S 3.25, E 2.8, M 2.39, Y 1.99, K 2.31, A 2.84, D 3.06, T 2.96, Q 2.35, L 2.57, F 2.45, R 2.01, N 2.87, V 2.74, I 2.44
F6: Y 4.13, D 5.75, P 5.56, L 4.24, C 5.11, R 4.63, I 4.67, S 5.16, A 4.88, M 4.69, G 4.57, H 4.96, V 4.99, Q 4.96, K 4.65, T 4.79, N 5.22
R10: N 2.63, I 2.13, L 2, G 2.93, W 1.65, K 2.81, D 3.93, F 1.74, V 2.5, T 2.8, Y 2.41, E 3.65, A 2.35, Q 1.98, S 3.19, M 1.52, H 2.85, C 2.47, P 2.3
E5: A 2.75, K 2.22, T 3.55, S 3.07, L 2.11, Y 1.04, R 2.15, D 3.64, G 2.78, N 3.27, P 2.95, C 1.84, I 1.97, F 1.76, Q 2.14, H 2.16, V 1.32, M 2.68
D14: R 2.02, H 2.73, G 1.22, C 1.79, T 1.94, V 2.01, F 2.59, W 2.2, S 2.19, N 2.59, M 1.94, L 1.98, E 2.32, P 2.04, Y 2.48, Q 1.41, A 2.54, K 1.71, I 1.54
